Data as given in paper PMC5344419, “The structure of FKBP38 in complex with the MEEVD tetratricopeptide binding-motif of Hsp90” (PLoS ONE, 2017).
Entries after “also recorded” stand apart in the source; their conditions may differ. Where two headings read alike, the source gives them in different places.

Legend:
yeast Hsp90 = test system: yeast Hsp90; design: method as in 2 sources, ref [41] = [41]; PMID 12504007; doi:10.1016/s1097-2765(02)00785-2; 41 Panaretou B , Siligardi G , Meyer P , Maloney A , Sullivan JK , Singh S , et al Activation of the ATPase activity of hsp90 by the stress-regulated cochaperone aha1 . Mol Cell . 2002; 10 ( 6 ): 130 ||| ref [42] = [42]; PMID 9927435; doi:10.1093/emboj/18.3.754; 42 Prodromou C , Siligardi G , O'Brien R , Woolfson DN , Regan L , Panaretou B , et al Regulation of Hsp90 ATPase activity by tetratricopeptide repeat (TPR)-domain co-chaperones . Embo J . 1999; 18; conditions: cited from earlier work
FKBP^1-380 [1] = molecular target: T1, FKBP^1-380 (Homo sapiens, UniProt Q14318); assay: Isothermal titration calorimetry (ITC), binding to FKBP^1-380 (FKBP8 isoform lacking the transmembrane domain); conditions: ITC (ITC200); intact protein or domain fragment; 20 mM Tris, 300 mM NaCl, 1mM EDTA pH 7.5; method: 700 to 800 μM FKBP injected into 50 μM Hsp90; Fig 2 picture: Hsp90β into FKBP^1-380 (panel C)
T1 construct: representing amino acids 1–380 and lacking the C-terminal trans-membrane helix; made in house; host or cells: E. coli BL21 (DE3)
Source text: (§1) FKBP8 (FKBP^1-380) was cloned as an NdeI-HindIII fragment representing amino acids 1–380 and lacking the C-terminal trans-membrane helix into pDMXV4 with a non-cleavable C-terminal His6-Tag (Fig 1). The FKBP38 immunophilin domain, representing amino acids 92–207 (FKBP^92-207), and a larger fragment containing both the immunophilin and TPR domain (FKBP^92-380) were also cloned in pDMXV4 (Fig 1). The K307E mutation was generated in the FKBP8^92-380 construct by PCR mutagenesis. Full-length human Hsp90β, human Hsp70, two middle domain human fragments (Hsp90β^295–689 and Hsp90β^295–724) and a yeast C-terminal fragment of Hsp90 (yHsp90^546-709) were expressed from pRSETA as His-tagged fusions. The Hsp90α^464–732 construct was expressed from p2E (A. Oliver, University of Sussex), as a PreScission cleavable His-tagged fusion. […]
(§2) Proteins were dialysed overnight into 20 mM Tris, 300 mM NaCl, 1mM EDTA pH 7.5. The heat of interaction was measured on an ITC200 microcalorimeter (Microcal), with a cell volume of 200 μL, under the same buffer conditions. […] Heats of dilution were determined in a separate experiment by diluting protein into buffer, and the corrected data were fitted using a non-linear least-squares curve-fitting algorithm (Microcal Origin) with three floating variables: stoichiometry, binding constant and change in enthalpy of interaction.

FKBP^92-380 [2] = assay: Isothermal titration calorimetry (ITC), binding to FKBP^92-380 (FKBP38 isoform); conditions: ITC (ITC200); 20 mM Tris, 300 mM NaCl, 1mM EDTA pH 7.5; 700 to 800 μM FKBP^92-380 injected into 50 μM intact Hsp90β
Source text: as §1, §2

FKBP^92-207 = assay: Isothermal titration calorimetry (ITC), binding to the immunophilin domain alone; conditions: full-length Hsp90β, 20 mM Tris, 300 mM NaCl, 1mM EDTA pH 7.5, 700 to 800 μM FKBP^92-207 injected into 50 μM Hsp90β
Source text: as §1, §2

[3] = test system: K307E mutant of FKBP^92-380; assay: Isothermal titration calorimetry (ITC), binding to the K307E carboxylate clamp mutant; conditions: 20 mM Tris, 300 mM NaCl, 1mM EDTA pH 7.5, 700 to 800 μM mutant injected into 50 μM yeast Hsp90^546-709
Source text: as §1, §2

FKBP^92-380 [4] = assay: Analytical gel-filtration chromatography, co-migration with FKBP^92-380; format: binding; conditions: Superdex 200; equimolar mixture; 50 mM Tris, 300 mM NaCl, 1 mM EDTA, 0.5 mM TCEP, pH 7.5
Description: Equimolar concentrations of the C-terminal fragment of yHsp90^546-709 and FKBP^92-380 were mixed and loaded onto an analytical Superdex 200 column equilibrated in 50 mM Tris, 300 mM NaCl, 1 mM EDTA and 0.5 mM TCEP at pH 7.5.

FKBP^1-380 [5] = molecular target: T1, FKBP^1-380; assay: Gel-filtration chromatography, co-migration with FKBP^1-380 (as in the legend of Fig 2L); format: binding; conditions: Fig 2L legend: yHsp90^546-709, FKBP^1-380 and their mixture; Superdex 200, pH 7.5

T1 sequence (Q14318 1-380): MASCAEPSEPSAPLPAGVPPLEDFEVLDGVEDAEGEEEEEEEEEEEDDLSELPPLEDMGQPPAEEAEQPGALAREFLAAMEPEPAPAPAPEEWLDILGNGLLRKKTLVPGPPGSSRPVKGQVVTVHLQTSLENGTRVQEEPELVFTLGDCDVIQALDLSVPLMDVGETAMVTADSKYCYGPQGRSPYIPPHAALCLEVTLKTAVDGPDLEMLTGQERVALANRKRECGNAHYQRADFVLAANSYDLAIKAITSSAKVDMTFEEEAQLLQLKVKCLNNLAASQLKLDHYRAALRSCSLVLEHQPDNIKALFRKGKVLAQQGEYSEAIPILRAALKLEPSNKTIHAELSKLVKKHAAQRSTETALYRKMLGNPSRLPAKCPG

Cpr6: yeast peptidyl-propyl isomerase
effect on ATPase activity of yeast Hsp90 (yeast Hsp90; peptidyl-propyl isomerase Cpr6, previous studies, ref [41]): weakly activates

Hsp90β: Full-length human Hsp90β, expressed as His-tagged fusion
Kd (FKBP^1-380 [1]): 2.8 ± 0.1 µM | Kd (FKBP^92-380 [2]): 2600 ± 200 nM | binding (in words) (FKBP^92-207): failed to bind

Hsp90β^295-724: fragment representing the middle and C-terminal domain of Hsp90β
Kd (FKBP^1-380 [1]): 6.4 ± 0.5 µM

Sti1: TPR domain protein Sti1 (HOP in humans)
effect on ATPase activity of yeast Hsp90 (yeast Hsp90; TPR domain protein Sti1 (HOP in humans), previous studies, ref [42]): inhibit; also recorded: strong inhibitor

yHsp90^546-709: yeast C-terminal fragment of Hsp90
binding (in words) [3]: failed to bind | co-migration in gel filtration (FKBP^92-380 [4]): co-migrated | co-migration in gel filtration (FKBP^1-380 [5]): co-migrate as a complex
